Test [1] concerns the target T1, RAS G12D peptide on HLA-A*11:01 (human).
T1 peptide: VVGADGVGK
Description: activation reporter or marker.

Test [2] concerns the target T2, RAS G12C peptide on HLA-A*11:01 (human).
T2 peptide: VVGACGVGK
The test is described as follows: activation reporter or marker.

Test [3] concerns the target T3, RAS wild type peptide on HLA-A*11:01 (human).
T3 peptide: VVGAGGVGK
The test is described as follows: activation reporter or marker.

Test [4] has as its target T4, RAS G12V peptide on HLA-A*11:01 (human).
T4 peptide: VVGAVGVGK
The test is described as follows: multimer staining.

In test [5] the target is T5, RAS wild type peptide on HLA-A*11:01 (human).
T5 peptide: VVVGAGGVGK
The test is described as follows: killing.

The target in test [6] is T6, RAS G12V peptide on HLA-A*03:01 (human).
T6 peptide: VVVGAVGVGK
The test is described as follows: cytokine release.

For test [7], the target named is T7, RAS G12C peptide on HLA-A*11:01 (human).
T7 peptide: VVVGACGVGK
The test is described as follows: activation reporter or marker.

For test [8], the target named is T8, RAS G12V peptide on HLA-A*11:01 (human).
T8 peptide: VVVGAVGVGK
Description: multimer staining.

Test [9] deals with T9, RAS wild type peptide on HLA-B*07:02 (human).
T9 peptide: GAGGVGKSAL
Description: killing.

Test [10] has as its target T10, RAS G12D peptide on HLA-B*07:02 (human).
T10 peptide: GADGVGKSAL
Description: activation reporter or marker.

For test [11], the target named is T11, RAS G12V peptide on HLA-B*07:02 (human).
T11 peptide: GAVGVGKSAL
Description: activation reporter or marker.

Test [12] deals with T12, RAS G12C peptide on HLA-B*07:02 (human).
T12 peptide: GACGVGKSAL
Description: activation reporter or marker.

The target in test [13] is T13, RAS G12R peptide on HLA-B*07:02 (human).
T13 peptide: GARGVGKSAL
The test is described as follows: multimer staining.

Test [14] has as its target T9, RAS wild type peptide on HLA-B*07:02. The test is described as follows: activation reporter or marker.
The target in test [15] is T14, RAS wild type peptide on HLA-A*03:01 (human).
T14 peptide: VVVGAGGVGK
Description: killing.

In test [16] the target is T15, RAS G12R peptide on HLA-A*03:01 (human).
T15 peptide: VVVGARGVGK
The test is described as follows: activation reporter or marker.

The target in test [17] is T16, RAS G12C peptide on HLA-A*03:01 (human).
T16 peptide: VVVGACGVGK
Description: activation reporter or marker.

Test [18] addresses T17, RAS G12D peptide on HLA-A*03:01 (human).
T17 peptide: VVVGADGVGK
Description: activation reporter or marker.

Test [19] concerns the target T6, RAS G12V peptide on HLA-A*03:01. The test is described as follows: multimer staining.

B1: TCR897 (TCR, V domains shown)
Valpha: SQQGEEDPQALSIQEGENATMNCSYKTSINNLQWYRQNSGRGLVHLILIRSNEREKHSGRLRVTLDTSKKSSSLLITASRAADTASYFCATDPGGFKTIFGAGTRLFVKA
Vbeta: EAGVAQSPRYKIIEKRQSVAFWCNPISGHATLYWYQQILGQGPKLLIQFQNNGVVDDSQLPKDRFSAERLKGVDSTLKIQPAKLEDSAVYLCASSLYGGSISYEQYFGPGTRLTVT
In the case of B1, the binding result in [1] is recorded as “recognises”; in test [2], “recognises”; in test [3], “no recognition”; in [4], “recognises”.

B2: TCR831 (TCR, V domains shown)
Valpha: ELKVEQNPLFLSMQEGKNYTIYCNYSTTSDRLYWYRQDPGKSLESLFVLLSNGAVKQEGRLMASLDTKARLSTLHITAAVHDLSATYFCAVDKDGGYQKVTFGTGTKLQVIP
Vbeta: GAVVSQHPSWVICKSGTSVKIECRSLDFQATTMFWYRQFPKQSLMLMATSNEGSKATYEQGVEKDKFLINHASLTLSTLTVTSAHPEDSSFYICSASPRAGQLSSYNSPLHFGNGTRLTVT
Take B2: the binding result is on record as “no recognition” in [5], “no recognition” in test [6], “recognises” in [7] and “recognises” in test [8].

B3: TCR864 (TCR, V domains shown)
Valpha: LAKTTQPISMDSYEGQEVNITCSHNNIATNDYITWYQQFPSQGPRFIIQGYKTKVTNEVASLFIPADRKSSTLSLPRVSLSDTAVYYCLVGDFNSNSGYALNFGKGTSLLVTP
Vbeta: GAGVSQSPSNKVTEKGKDVELRCDPISGHTALYWYRQRLGQGLEFLIYFQGNSAPDKSGLPSDRFSAERTGESVSTLTIQRTQQEDSAVYLCASKVYGYTFGSGTRLTVV
For B3, the binding result is given as “no recognition” in test [9]; “no recognition” in test [10]; “no recognition” in test [11]; “no recognition” in test [12]; “recognises” in test [13].

B4: TCR847 (TCR, V domains shown)
Valpha: SQQGEEDPQALSIQEGENATMNCSYKTSINNLQWYRQNSGRGLVHLILIRSNEREKHSGRLRVTLDTSKKSSSLLITASRAADTASYFCATFPNFGNEKLTFGTGTRLTIIP
Vbeta: DAGITQSPRHKVTETGTPVTLRCHQTENHRYMYWYRQDPGHGLRLIHYSYGVKDTDKGEVSDGYSVSRSKTEDFLLTLESATSSQTSVYFCAISESERYYEQYFGPGTRLTVT
Consider B4, for which the binding result in test [10] is recorded as “no recognition”; in test [11] it was “no recognition”; in test [14], “no recognition”; in test [12], “no recognition”; in test [13], “recognises”.

B5: TCR896 (TCR, V domains shown)
Valpha: AQKVTQAQTEISVVEKEDVTLDCVYETRDTTYYLFWYKQPPSGELVFLIRRNSFDEQNEISGRYSWNFQKSTSSFNFTITASQVVDSAVYFCALSEAGTYKYIFGTGTRLKVLA
Vbeta: DSGVTQTPKHLITATGQRVTLRCSPRSGDLSVYWYQQSLDQGLQFLIQYYNGEERAKGNILERFSAQQFPDLHSELNLSSLELGDSALYFCASSVAGGGQETQYFGPGTRLLVL
For the molecule B5, the binding result in [15] was “no recognition”; in test [16], “no recognition”; in test [17] it was “no recognition”; in test [18], “no recognition”; in test [19] it was “recognises”.

B6: TCR833 (TCR, V domains shown)
Valpha: RKEVEQDPGPFNVPEGATVAFNCTYSNSASQSFFWYRQDCRKEPKLLMSVYSSGNEDGRFTAQLNRASQYISLLIRDSKLSDSATYLCAVNPPDTGFQKLVFGTGTRLLVSP
Vbeta: DVKVTQSSRYLVKRTGEKVFLECVQDMDHENMFWYRQDPGLGLRLIYFSYDVKMKEKGDIPEGYSVSREKKERFSLILESASTNQTSMYLCASSLSFRQGLREQYFGPGTRLTVT
In the case of B6, the binding result was “no recognition” in test [5], “no recognition” in test [6], “recognises” in [7] and “recognises” in test [8].

(Values after patent US20220088190A1 (published 2022).)
